Measurements: article PMC7785802, “Therapeutic Efficacy of a Trichinella Spiralis Paramyosin-Derived Peptide Modified With a Membrane-Targeting Signal in Mice With Antigen-Induced Arthritis” (Frontiers in Microbiology, 2020)

Molecular target: T1, original peptide (Trichinella spiralis paramyosin-derived tetradecapeptide, …) (Trichinella spiralis)
T1 construct: also called Ts-pmy-derived peptide; original Ts-Pmy-derived peptide; source: synthetic peptide (solid-phase synthesis, GL Biochem; RP-HPLC purified up to 95%)
T1 sequence (P02748 22-559): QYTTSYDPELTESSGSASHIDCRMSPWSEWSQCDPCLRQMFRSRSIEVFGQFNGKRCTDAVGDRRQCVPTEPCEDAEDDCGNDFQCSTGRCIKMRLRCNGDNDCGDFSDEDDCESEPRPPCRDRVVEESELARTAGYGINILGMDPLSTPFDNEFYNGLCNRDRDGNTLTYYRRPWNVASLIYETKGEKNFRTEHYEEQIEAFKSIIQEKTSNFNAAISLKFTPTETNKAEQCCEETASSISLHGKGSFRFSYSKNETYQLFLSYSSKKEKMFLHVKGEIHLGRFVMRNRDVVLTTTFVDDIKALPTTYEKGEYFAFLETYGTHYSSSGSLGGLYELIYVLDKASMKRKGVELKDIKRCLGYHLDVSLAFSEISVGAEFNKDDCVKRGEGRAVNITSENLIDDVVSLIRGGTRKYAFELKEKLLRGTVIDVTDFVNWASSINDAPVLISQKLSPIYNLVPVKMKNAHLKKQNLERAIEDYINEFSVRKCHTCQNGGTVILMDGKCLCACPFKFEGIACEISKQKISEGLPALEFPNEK
Assay: MST
Settings: both partners purified

B1: human complement component C9 (natural protein)
chain: not shown
modifications: fluorescent probe NT-647 bound covalently (in the MST assay)
notes: also called human C9
B1: binds.
